Key:
[1] = target: the molecule itself; test: non-reducing SDS-PAGE with immunoblot
[2] = target: the molecule itself; test: non-reducing SDS-PAGE with Coomassie staining + mass spectrometry of the bands

B1: his-GB1-tagged C-domain of CRT_(Del52) (domain or fragment, human)
chain: MKDKQDEEQRTRRMMRTKMRMRRMRRTRRKMRRKMSPARPRTSCREACLQGWTEA
stoichiometry N [1]: 2

B2: FLAG-His-tagged full-length CRT_(Del52), purified (natural protein, human)
chain: EPAVYFKEQFLDGDGWTSRWIESKHKSDFGKFVLSSGKFYGDEEKDKGLQTSQDARFYALSASFEPFSNKGQTLVVQFTVKHEQNIDCGGGYVKLFPNSLDQTDMHGDSEYNIMFGPDICGPGTKKVHVIFNYKGKNVLINKDIRCKDDEFTHLYTLIVRPDNTYEVKIDNSQVESGSLEDDWDFLPPKKIKDPDASKPEDWDERAKIDDPTDSKPEDWDKPEHIPDPDAKKPEDWDEEMDGEWEPPVIQNPEYKGEWKPRQIDNPDYKGTWIHPEIDNPEYSPDPSIYAYDNFGVLGLDLWQVKSGTIFDNFLITNDEAYAEEFGNETWGVTKAAEKQMKDKQDEEQRTRRMMRTKMRMRRMRRTRRKMRRKMSPARPRTSCREACLQGWTEA
stoichiometry N [2]: 2

From paper PMC8085772 (The Journal of Cell Biology, 2021)
